These results are taken from publication PMC3766439 (Clinical cancer research : an official journal of the …, 2013).

The test concerns the target Nus-Tag EGFRvIII ECD deletion mutant CT 292–346 (Homo sapiens, UniProt P00533). Nature of the test: ELISA.

B1: D2C7 monoclonal antibody (antibody, V domains shown)
VH: EVHLQQSGPELEKPGASVKISCKASGYSFTGYNMNWVKQSNGKSLEWIGNIDPYYGDTDYDQKFKGKATLTADKSSNTVYMQLQSLTSEDSAVYYCARGAHRDYYAMDYWGQGTSVTVSS
VL: DIQMTQSPASLSASVGETVTITCRTSENIYIYLAWYQQKQGKSPQLLVYNAKTLAEGVPSRFSGSGSGTQFSLKINGLQPEDFGGYYCQQHYGTPYTFGGGTKLEKK
For B1, the binding result is “binds”.
